According to the nanobody polyreactivity screen of Harvey et al. (2022):

Assay: yeast display, Sf9 membrane polyspecificity reagent, FACS + sequencing; frameworks hold sequencing errors
Outline: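 Galactose-induced (36–48 hours) yeast carrying a synthetic nanobody display library were exposed to 10% biotinylated, detergent-solubilized Sf9 membrane reagent at 4 °C for 1 hour. FACS followed streptavidin microbead enrichment, using low and high (top ~1%) gates for expression (anti-HA) and reagent binding (streptavidin). Colony PCR, MiSeq 2 × 250 sequencing and CDR-length filtering followed. Labels for polyreactivity reflect the gate of origin.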

Sequence	polyreactivity (PSR sort gate)
QVQLVESGGCLDQAGGSLRLSCAASGFTFYNYAMGWYRQEPGKETQLVAAITRNGGRTYYADSVKWRFTISRDNAKYTVYLQMNSLKPEDTAFYYCASKKYKTVRYDYWGQGTQGTVSS	high polyreactivity
QVQLVESGGCLVPAGGSLRLSCAASGHTFSSYAMGWYRQAPGKERELVAAISVSATRTYYADSVKGRFTISRDNAKNTVYLQMNSLKPEDTAVFYCAARPVQFTYGYWGQGTQVTVSS	high polyreactivity
QVQLVESGGCLVQAGCSHRLSCAASGSTFGHNAMGWYRQAPGKERELVAAISWSGGRTSYADSVKGRFTISRDHAKNTVYLQLNSLKPEDTAVYYCAARSWRKGDYWGQGTQVTVSS	high polyreactivity
QVQLVESGGCLVQAGCSLRLSCAASGRIFGYYVMGWYRQAPGKERELVAAIRSSADSTYYADSVKGRFTISRDNAKNTVYLQMNSLKPEDTAVYYCAAQSPAYYTKSYWGQGTQVTVSS	low polyreactivity
QVQLVESGGCLVQAGCSRRLSCAASVRIFARNTMGWSRQAPGKERELVAAISWGGGRTYYADSVKGRFTISRDNAKNTVYLQMNSLKPEDTAVYYCAAETLQIPRGEYWGQGTQVTVSS	low polyreactivity
QVQLVESGGCLVQAGGRLRLSCAASGIIFYLYAMAWYRQARGKVWELVATISRRGGSTYYADSVKGRFTISRDNAKNTVYLQMNSLKPDDTAVYYCATGHFSVGRSFSSGSYEYWGQGTQVTVSS	high polyreactivity
QVQLVESGGCLVQAGGRLRLSCAASGLTLYKNGMGWYRQAPGKERELVAVISRSGGRTYYADSVKGRFTISRDNAKNTVFLHMNSLKPEDTAVYYCAALQYGPRYTYYYWGQGTQVTVSS	high polyreactivity
QVQLVESGGCLVQAGGRLRLSCAASVRTFRSYAMGWYRQAPGKERELVAAISWSGGSTYYADSVKGRFTISRDNAKNTVYLQMTSLKPEDTAGYYCAAEVYYTYVYILDYWGQGTQVTVSS	high polyreactivity
QVQLVESGGCLVQAGGRLRLSSAASGRTIGWNAMGWYRQAPGTEREFVAAITISGGDTYYADSVKGRFTISRDNAKNNVYFQMNSLKPEDTAVYYCAATSTWRPSFEMDYWGQGTQVTGSS	low polyreactivity
QVQLVESGGCLVQAGGSLRFICAASGRIFDDNAMGWYRPAPGKERELVATISSTGGRTYYADSLKGRFTISRDNAKNNVYLQMNSLKPEDTAVYYCAARRRQGGYYYWGQGTQVTVSS	high polyreactivity
QVQLVESGGCLVQAGGSLRISCAASGRIFSRNAMGWYRQAPGKEREWVAAITRSSGTTYYADSVKGRFTISRDNAKNTVYLQMNSLKPEDTAVYYCAAGHTYGGYPRPSDYWGQGTQVTVSS	low polyreactivity
QVQLVESGGCLVQAGGSLRLICAASGSIFDINAMGWYSQAPGKERELVADIRRGDSTNYADSVKGRFTISRDNAKNTVYLQMNSLKPEDTAVYYCAARWRRSIYGFYPQRPYDYWGQGTQVTVSS	high polyreactivity
QVQLVESGGCLVQAGGSLRLRCAASGSSFAYNDMGWDRQAPGKDRELVATIRNGGSTYYADSVKGRFTISRDNAKNTVYLQRNSLKPEDTAVYYCAAVPLWDYKFCYYLLYDYWGQGTQVNVSS	low polyreactivity
QVQLVESGGCLVQAGGSLRLSCAASGCTFVSNAMGWSRQAPGKERELVAAINGSGGITYYADSVKGRFTISRDNAKNTVYFQMNSLKPEDTAVYYCAAEVLYWRGYYNYWGQGTQVTVSS	low polyreactivity
QVQLVESGGCLVQAGGSLRLSCAASGFIFAKYAMGWYRQAPGKEREFVAAISFSGASTYYADSVKGRFTISRDNAKNTVYLQMNSLKPEDTAVYYCAAYWDAEGRRYTRLEYWGQGTQVTVSS	low polyreactivity
QVQLVESGGCLVQAGGSLRLSCAASGFIFGYYAMGWYRPPPGKESELVAAISWSGVSTYYADSVKGRFTISRDNAKNTVYLQMNSLKPEDTAVYYCAVGYVLTGVFQARFDYWGQGTQATVSS	high polyreactivity
QVQLVESGGCLVQAGGSLRLSCAASGFTFPNAMGWYIQAPGKERELDATISSSGGSTYYADSVKGRFTISRDNAKNTVYLQMNSLKPEDTAVFYCAARTRQYLIYRAYRYDYWGQGTQVTVSS	low polyreactivity
QVQLVESGGCLVQAGGSLRLSCAASGFTFQKYAMGWYRQAPGKERELVAAISWSGSSTYYADSVKGRFTISRDNAKNTVYLQMNSLKPEDTAFYYCAADSYYIQERDYWGQGTQVTVSS	high polyreactivity
QVQLVESGGCLVQAGGSLRLSCAASGFTFRYYAMGWYRQAPGKERELVAGITSGSRTNYADSVKGRFTISRDNAKNTVYLQMNSLKPEDSAVYYCAARIYNYQSWYDYWGQGTQVTVSS	high polyreactivity
QVQLVESGGCLVQAGGSLRLSCAASGFTFRYYAMGWYRQAPGKERELVASITGHGGSTYYADSVKGRFTISRDNAKNTVYLQMKSLKPEDTAVYYCNARVRGYYEYNYWGQGTQVTVST	high polyreactivity
QVQLVESGGCLVQAGGSLRLSCAASGFTFYRSVMGWYRQAPGKERELVAAITSDGGSTYYAVSVKGRFTISRDNGKNTVYLQMNSLKPEDTAVYYCSADASTWYTEEYWGQGNQVTVSS	low polyreactivity
QVQLVESGGCLVQAGGSLRLSCAASGIIFYTYAMGWYRQAPGKEREFVAGIRWSGSSTYYADSVKGRFTISRDNAKNTVYLQMNSLKPEDTAVYYCATGQPYGPLYSLGYGYWGQGTQVTVSS	high polyreactivity

Sequence	polyreactivity (PSR sort gate)
QVQLVESGGCLVQAGGSLRLSCAASGITFRSYTMGWYRQAPGQESELVAAISYSAGSTYYADSVKGRFTISRDNAKNTVYLQMNSLKPEDTAVYYCAARPRLVVLVIRFYYWGQGTQVTVSS	high polyreactivity
QVQLVESGGCLVQAGGSLRLSCAASGITFVGNAMGCYRQAPVKERELVAGIRGNGGSTYYADSVKGRFTISRDYAKNTVYLQMNSLKPEDTAVYYCAAAAYYADFDYWGQGTQVTVSS	low polyreactivity
QVQLVESGGCLVQAGGSLRLSCAASGLIFPSYAMGWYRQAPGKERELVAAITFSGSDTNYADSVKGRFTISRDNAKNTVYLQLYSLIPEDTAVYYCAAAYFDFWGWLHDYWGQGTQVTVSS	low polyreactivity
QVQLVESGGCLVQAGGSLRLSCAASGLIFRGYAMGWYRQAPGKERELVATITGGGRTNYADSVKGRFTLSRDNAKNTVYLQMNSLKPEDTAVYYCNTGYYGRLRDDYWGQGTQVTVSS	high polyreactivity
QVQLVESGGCLVQAGGSLRLSCAASGLIFYGYAMGWYRQAPGKERELVAAITSGGSTNYADSVKGRFTISRDNAKNTVYLQMNSLKPEDTSFYYCNADVIYYYRAYPVYEYDYWGQGTQVTVSS	low polyreactivity
QVQLVESGGCLVQAGGSLRLSCAASGRIFSGYVMGWYRQAPGKERELVAGITYRDGSTYYADSVKGRFTISRDKEKNTVYLQMNSLKPEDTAVYYCNADDYNDIPYDYWGQGTHVTVSS	low polyreactivity
QVQLVESGGCLVQAGGSLRLSCAASGRTFGRNAMGWYRKAPGKERDLVAAISRSGASTYYADSVKGRFTISRDNAKITVYLQMNSLKEEDTAVYYCAKDVWGSRYAYDYWGQGTQVTVSS	low polyreactivity
QVQLVESGGCLVQAGGSLRLSCAASGRTFSSNALGWYRHAPGKERELVAAITTTGGRTYYADSVKGRFTISRDNAKNTVYLQMNSLKPEDTAVYYCAARRRYGYDFWGHGTQVTVSS	high polyreactivity
QVQLVESGGCLVQAGGSLRLSCAASGRTFVNNAMGWYRQAPGKYRELVAAITRSGGLTYSADSVKGRFTISRDHAKNTVYLQMTMLKPEYTAVYDCATAIVRLRHDDDWGQGTQVTVSS	high polyreactivity
QVQLVESGGCLVQAGGSLRLSCAASGRTFYTYAMGWYRQAPGQERELVAAITYRGGNTYYADSVKGRFTISRDNAKNTVYLQMNSLKREDTAVYYCAATYKRRSGQSFDYWGQGTQVTVSS	high polyreactivity
QVQLVESGGCLVQAGGSLRLSCAASGSIFERNVMGWYRHAPGKERELVAAITSGGSTNYADSVKGRFTISRDNAKNTVYLQMNSLKPEETAVYYCAADVPYRSRFYRYRLSGGDYWGQGTQVTVSS	low polyreactivity
QVQLVESGGCLVQAGGSLRLSCAASGSIFLYNAMGWYRQAPGKERELVAAIPYSGGRTYYADSVKGRFTISRDNAKNTVSFQMNSLKPEDTAFYYCAVKSFSGHGDYWGQGTQVTVSS	low polyreactivity
QVQLVESGGCLVQAGGSLRLSCAASGSIFPGYAMGWYRQATGKERELVAAISTSGGSTYADSVKGRFTISRDNAKNTVYLQMNSLKPEDTAVYYCAATYTYTSPVYYYLDGPWPYDYWGQGTQVTVSS	low polyreactivity
QVQLVESGGCLVQAGGSLRLSCAASGSIFRYYAMGWNRQAPGKERELVAAISSSGDNTYYADSVKGRFTISRDNAKNTVYLQMNSLKPEDTAVYYCAVRGERRYIYDYWGQGSQVTVSS	high polyreactivity
QVQLVESGGCLVQAGGSLRLSCAASGSIFSAYAMGWYRQAPGKERELVAGITSSGDSTYYADSVKGRFTISRDKAKNTVYLQMNSLKPEDTAVYYCNRVLGGVPFDHWGQGTQVTVSS	low polyreactivity
QVQLVESGGCLVQAGGSLRLSCAASGSIFYRNAMGWYRQAPGKERELVAAISSDGSTNYADSVKGRFTISRDNAKNTVYLQMNSLKPEDTAVYYCAAPWTQILDYWGQGTQVTVSS	low polyreactivity
QVQLVESGGCLVQAGGSLRLSCAASGSINRSYAMAWYRQAPGKDWELVASISRRGGSTYYADSVKGRFTISRDNAKNSVYLQMNRLKPEDSAVYYCAAVRYNSRVSTTPSEMYYWGQGTQVTVSS	low polyreactivity
QVQLVESGGCLVQAGGSLRLSCAASGSISYSYSMGWYRQAPGKERELVATISWGGGRTYYADSVKGRFTISRDNAKNTVYLQMNSLKPEDTAVYYFATAYRFRYGFAKRYDYWGQGTQVTVSS	low polyreactivity
QVQLVESGGCLVQAGGSLRLSCAASGSIYGYTMGWYRQAPGKERELVAAINRRADRTYYADSVKGRFTISRDNAKNTVYLQMNSLKPEDTAVYYCATLQGDSSSQYDYWGHGTQVTVSS	high polyreactivity
QVQLVESGGCLVQAGGSLRLSCAASGSTFRHYAMGWYRQQPGKERELVASISKSAGRTYYADSVKGRFTISRDIAKNTVNLQMNSLKPEDTAVYYCAAYRIHVYPAGLAWQYYYELDYWGQGTQLTVSS	high polyreactivity
QVQLVESGGCLVQAGGSLRLSCAASGSTFTSNAMGWYRQAAGKEWQFVAAISFGGGITYDADSVKGRFTISRDNAKNTVSLQMNSLKPEDTAVYYCAADGEYPHSEDFEYWGQGTQGTVSS	low polyreactivity
